This data set addresses T1, CydE (GbsR-type regulator) (Alishewanella sp. WH16-1, UniProt A0ABQ3KUT0 1-187).
T1 sequence: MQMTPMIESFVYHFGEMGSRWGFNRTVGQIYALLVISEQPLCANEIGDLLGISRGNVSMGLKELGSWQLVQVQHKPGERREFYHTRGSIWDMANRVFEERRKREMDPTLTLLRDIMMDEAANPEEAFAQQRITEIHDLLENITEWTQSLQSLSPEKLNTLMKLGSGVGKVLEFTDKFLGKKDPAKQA
Briefly: EMSA; ethidium bromide stain; EMSA: 20 uL with 2 uL 10x binding buffer (listed as 10 mM Tris pH 7.5, 10 mM EDTA, 1 mM KCl, 1 mM DTT, 50% glycerol, 0.1 mg/mL BSA), 37 C 30 min, 8% native PAGE in 0.5x TGE pH 8.0; footprinting: same mix, DNase I 10 min at room temperature. The following applies: protein: recombinant; tags: His6 (pET28a); chain copies: 2; (synthesized). On the technique in general: Mobility shift assays separate free from complexed probe on a gel.

The results in this text go back to publication PMC6096048, “The Cytochrome bd Complex Is Essential for Chromate and Sulfide Resistance and Is Regulated by a GbsR-Type Regulator, CydE, in Alishewanella Sp. WH16-1”.

B1: CydE binding site 2 (dsDNA)
DNA 1: GGGATGCGCATATGCAAAT
DNA 2: ATTTGCATATGCGCATCCC
On to B1, for which the binding result is on record as “binds”.

B2: CydE binding site 1 (dsDNA)
DNA 1: TATTTCAGAAATTTCTGAAAGTTCA
DNA 2: TGAACTTTCAGAAATTTCTGAAATA
Turning to B2, the binding result is “binds”.
